Data on 21 molecules can be found in patent publication US20210380703A1.

B1: 370_F05 (antibody, V domains shown)
VH: EVQLLESGGGLVQPGGSLRLSCAASGFTFSSYGMNWVRQAPGKGLEWVSGINYNSGYTSYADSVKGRFTISRDNSKNTLYLQMNSLRAEDTAVYYCARSANWHDTALDYWGQGTLVTVSS
VL: DIQMTQSPSSLSASVGDRVTITCRASQSIVSYVNWYQQKPGKAPKLVIYAATSRASGVPSRFSGSGSGTDFTLTISSLQPEDFATYYCQQSYETPLTFGGGTKVEIK
B2: 370_G11 (antibody, V domains shown)
VH: EVQLLESGGGLVQPGGSLRLSCAASGFTFSSYSMNWVRQAPGKGLEWVASINYNSGYTSYADSVKGRFTISRDNSKNTLYLQMNSLRAEDTAVYYCARSANWHDTHLDYWGQGTLVTVSS
VL: DIQMTQSPSSLSASVGDRVTITCRASQSIVSYLNWYQQKPGKAPKLVIYAATSRASGVPSRFSGSGSGTDFTLTISSLQPEDFATYYCQQSYSLPLTFGGGTKVEIK
B3: 371_D09 (antibody, V domains shown)
VH: EVQLLESGGGLVQPGGSLRLSCAASGFTFSSYSMNWVRQAPGKGLEWVSNINYNSGYTGYADSVKGRFTISRDNSKNTLYLQMNSLRAEDTAVYYCARSANWHDTALDYWGQGTLVTVSS
VL: DIQMTQSPSSLSASVGDRVTITCRASQSILTYLNWYQQKPGKAPKLVIYAATSRASGVPSRFSGSGSGTDFTLTISSLQPEDFATYYCQQSYNNPLTFGGGTKVEIK
B4: 370_G10 (antibody, V domains shown)
VH: EVQLLESGGGLVQPGGSLRLSCAASGFTFSDYGMNWVRQAPGKGLEWVSGINYNSGYTSYADSVKGRFTISRDNSKNTLYLQMNSLRAEDTAVYYCARSANWHDTALDYWGQGTLVTVSS
VL: DIQMTQSPSSLSASVGDRVTITCRASQSISSYLNWYQQKPGKAPKLLIYVVNNRASGVPSRFSGSGSGTDFTLTISSLQPEDFATYYCQQSYENPLTFGGGTKVEIK
B5: 371_A08 (antibody, V domains shown)
VH: EVQLLESGGGLVQPGGSLRLSCAASGFTFSSYGMHWVRQAPGKGLEWVSSINYNGGYTSYADSVKGRFTISRDNSKNTLYLQMNSLRAEDTAVYYCARSANWHDTALDYWGQGTLVTVSS
VL: DIQMTQSPSSLSASVGDRVTITCRASQSILSYLNWYQQKPGKAPKLVIYAATSRASGVPSRFSGSGSGTDFTLTISSLQPEDFATYYCQQSYELPLTFGGGTKVEIK
B6: 371_B06 (antibody, V domains shown)
VH: EVQLLESGGGLVQPGGSLRLSCAASGFTFDSYSMNWVRQAPGKGLEWVAGINYNGGYKSYADSVKGRFTISRDNSKNTLYLQMNSLRAEDTAVYYCARSANWHDTALDYWGQGTLVTVSS
VL: DIQMTQSPSSLSASVGDRVTITCRASQSILTYVNWYQQKPGKAPKLVIYAATSRHSGVPSRFSGSGSGTDFTLTISSLQPEDFATYYCQQSYNLPLTFGGGTKVEIK
B7: 371_F01 (antibody, V domains shown)
VH: EVQLLESGGGLVQPGGSLRLSCAASGFTFSSYSMNWVRQAPGKGLEWVAGINYNGGYTGYADSVKGRFTISRDNSKNTLYLQMNSLRAEDTAVYYCARSANWHDTALDYWGQGTLVTVSS
VL: DIQMTQSPSSLSASVGDRVTITCRASQSILTYVNWYQQKPGKAPKLVIYAATSLASGVPSRFSGSGSGTDFTLTISSLQPEDFATYYCQQSYNNPLTFGGGTKVEIK
B8: 370_G09 (antibody, V domains shown)
VH: EVQLLESGGGLVQPGGSLRLSCAASGFTFSSYGMNWVRQAPGKGLEWVAGINYNGGYKSYADSVKGRFTISRDNSKNTLYLQMNSLRAEDTAVYYCARSANWHDTALDYWGQGTLVTVSS
VL: DIQMTQSPSSLSASVGDRVTITCRASQSILSYVNWYQQKPGKAPKLVIYAATSRASGVPSRFSGSGSGTDFTLTISSLQPEDFATYYCQQSYESPLTFGGGTKVEIK
B9: 370_H01 (antibody, V domains shown)
VH: EVQLLESGGGLVQPGGSLRLSCAASGFTFSSYSMNWVRQAPGKGLEWVSGINYNSGYKGYADSVKGRFTISRDNSKNTLYLQMNSLRAEDTAVYYCARSANWHDTALDYWGQGTLVTVSS
VL: DIQMTQSPSSLSASVGDRVTITCRASQSIISYLNWYQQKPGKAPKLLIYAVTSRASGVPSRFSGSGSGTDFTLTISSLQPEDFATYYCQQSYDTPLTFGGGTKVEIK
B10: 370_G06 (antibody, V domains shown)
VH: EVQLLESGGGLVQPGGSLRLSCAASGFTFSDYGMHWVRQAPGKGLEWVSSINYNGGYTSYADSVKGRFTISRDNSKNTLYLQMNSLRAEDTAVYYCARSANWHDTALDYWGQGTLVTVSS
VL: DIQMTQSPSSLSASVGDRVTITCRASQSILSYVNWYQQKPGKAPKLVIYAATSRASGVPSRFSGSGSGTDFTLTISSLQPEDFATYYCQQSDNTPLTFGGGTKVEIK
B11: 370_F10 (antibody, V domains shown)
VH: EVQLLESGGGLVQPGGSLRLSCAASGFTFSSYSMNWVRQAPGKGLEWVAGINYNGGYTSYADSVKGRFTISRDNSKNTLYLQMNSLRAEDTAVYYCARSANWHDTALDYWGQGTLVTVSS
VL: DIQMTQSPSSLSASVGDRVTITCRASQSIVSYLNWYQQKPGKAPKLVIYAATSRASGVPSRFSGSGSGTDFTLTISSLQPEDFATYYCQQSYNSPLTFGGGTKVEIK
B12: 371_A03 (antibody, V domains shown)
VH: EVQLLESGGGLVQPGGSLRLSCAASGFTFSDYGMNWVRQAPGKGLEWVANINYNGGYTGYADSVKGRFTISRDNSKNTLYLQMNSLRAEDTAVYYCARSANWHDTALDYWGQGTLVTVSS
VL: DIQMTQSPSSLSASVGDRVTITCRASQSILSYLNWYQQKPGKAPKLVIYATTSRASGVPSRFSGSGSGTDFTLTISSLQPEDFATYYCQQSYESPLTFGGGTKVEIK
B13: 370_F07 (antibody, V domains shown)
VH: EVQLLESGGGLVQPGGSLRLSCAASGFTFDSYSMNWVRQAPGKGLEWVSNINYNGGYKGYADSVKGRFTISRDNSKNTLYLQMNSLRAEDTAVYYCARSANWHDTALDYWGQGTLVTVSS
VL: DIQMTQSPSSLSASVGDRVTITCRASQSILSYLNWYQQKPGKAPKLLIYAATSRASGVPSRFSGSGSGTDFTLTISSLQPEDFATYYCQQSYNLPLTFGGGTKVEIK
B14: 371_A06 (antibody, V domains shown)
VH: EVQLLESGGGLVQPGGSLRLSCAASGFTFSSYGMNWVRQAPGKGLEWVAGINYNGGYTSYADSVKGRFTISRDNSKNTLYLQMNSLRAEDTAVYYCARSANWHDTALDYWGQGTLVTVSS
VL: DIQMTQSPSSLSASVGDRVTITCRASQSILTYLNWYQQKPGKAPKLVIYAATSRHSGVPSRFSGSGSGTDFTLTISSLQPEDFATYYCQQSYDSPLTFGGGTKVEIK
B15: 371_B07 (antibody, V domains shown)
VH: EVQLLESGGGLVQPGGSLRLSCAASGFTFDSYSMNWVRQAPGKGLEWVAGINYNGGYTSYADSVKGRFTISRDNSKNTLYLQMNSLRAEDTAVYYCARSANWHDTALDYWGQGTLVTVSS
VL: DIQMTQSPSSLSASVGDRVTITCRASQSILTYVNWYQQKPGKAPKLLIYAATSRASGVPSRFSGSGSGTDFTLTISSLQPEDFATYYCQQSYELPLTFGGGTKVEIK
B16: 370_H09 (antibody, V domains shown)
VH: EVQLLESGGGLVQPGGSLRLSCAASGFTFSSYGMNWVRQAPGKGLEWVANINYNGGYTSYADSVKGRFTISRDNSKNTLYLQMNSLRAEDTAVYYCARSANWHDTALDYWGQGTLVTVSS
VL: DIQMTQSPSSLSASVGDRVTITCRASQSIVSYVNWYQQKPGKAPKLLIYAATSRASGVPSRFSGSGSGTDFTLTISSLQPEDFATYYCQQSYDNPLTFGGGTKVEIK
B17: 371_A12 (antibody, V domains shown)
VH: EVQLLESGGGLVQPGGSLRLSCAASGFTFDSYSMNWVRQAPGKGLEWVAGINYNSGYTSYADSVKGRFTISRDNSKNTLYLQMNSLRAEDTAVYYCARSANWHDTALDYWGQGTLVTVSS
VL: DIQMTQSPSSLSASVGDRVTITCRASQSILSYVNWYQQKPGKAPKLVIYAATSLASGVPSRFSGSGSGTDFTLTISSLQPEDFATYYCQQSYDTPLTFGGGTKVEIK
B18: 370_G02 (antibody, V domains shown)
VH: EVQLLESGGGLVQPGGSLRLSCAASGFTFSDYSMNWVRQAPGKGLEWVANINYNGGYKGYADSVKGRFTISRDNSKNTLYLQMNSLRAEDTAVYYCARSANWHDTALDYWGQGTLVTVSS
VL: DIQMTQSPSSLSASVGDRVTITCRASQSIVSYLNWYQQKPGKAPKLLIYAATSRHSGVPSRFSGSGSGTDFTLTISSLQPEDFATYYCQQSYDSPLTFGGGTKVEIK
B19: 370_G03 (antibody, V domains shown)
VH: EVQLLESGGGLVQPGGSLRLSCAASGFTFSSYSMNWVRQAPGKGLEWVANINYNGGYTGYADSVKGRFTISRDNSKNTLYLQMNSLRAEDTAVYYCARSANWHDTALDYWGQGTLVTVSS
VL: DIQMTQSPSSLSASVGDRVTITCRASQSILTYVNWYQQKPGKAPKLVIYATTSRASGVPSRFSGSGSGTDFTLTISSLQPEDFATYYCQQSYNNPLTFGGGTKVEIK
B20: 371_A07 (antibody, V domains shown)
VH: EVQLLESGGGLVQPGGSLRLSCAASGFTFSDYSMNWVRQAPGKGLEWVSNINYNGGYKSYADSVKGRFTISRDNSKNTLYLQMNSLRAEDTAVYYCARSANWHDTALDYWGQGTLVTVSS
VL: DIQMTQSPSSLSASVGDRVTITCRASQSILSYLNWYQQKPGKAPKLVIYATTSRASGVPSRFSGSGSGTDFTLTISSLQPEDFATYYCQQSYDLPLTFGGGTKVEIK
B21: 371_F04 (antibody, V domains shown)
VH: EVQLLESGGGLVQPGGSLRLSCAASGFTFDSYSMNWVRQAPGKGLEWVAGINYNSGYKGYADSVKGRFTISRDNSKNTLYLQMNSLRAEDTAVYYCARSANWHDTALDYWGQGTLVTVSS
VL: DIQMTQSPSSLSASVGDRVTITCRASQSILSYLNWYQQKPGKAPKLLIYAATSRHSGVPSRFSGSGSGTDFTLTISSLQPEDFATYYCQQSYNNPLTFGGGTKVEIK

For the experiment, the target named is Human Fc (human). Briefly: ELISA, negative control. For orientation: In an ELISA, binding on a coated surface is turned into a signal by an enzyme label.
B1 showed an optical density of 0.406 OD.
As to B2, the optical density is 0.529 OD.
Molecule B3 yielded an optical density of 0.268 OD.
B4: the optical density stood at 0.315 OD.
In the case of B5, the optical density came out at 0.304 OD.
Regarding B6, the optical density was 0.356 OD.
In turn, B7 displayed an optical density of 0.41 OD.
The figure for B8 is 0.393 OD; for B9 it is 0.436 OD.
As to B10, the optical density turned out to be 0.356 OD.
As for B11, the figure is 0.441 OD; as for B12, 0.354 OD; as for B13, 0.384 OD.
With B14, the optical density is 0.337 OD.
On to B15, for which the optical density came out at 0.308 OD.
For the molecule B16, the optical density came to 0.348 OD.
Molecule B17 showed an optical density of 0.483 OD.
Regarding B18, the optical density amounted to 0.388 OD.
Molecule B19 yielded an optical density of 0.421 OD.
B20: the optical density turned out to be 0.336 OD.
As for B21, the figure is 0.345 OD.
